In the supplement of paper PMC5998384:

How the values were obtained:
HeLa Kyoto [1] = assay: solubility in G1/S (NP-40 vs SDS abundance) (log2 ratio); higher = more soluble; conditions: cell cycle stage: G1/S
HeLa Kyoto [2] = assay: melting temperature (median over replicates), in situ; higher = more thermally stable
HeLa Kyoto [3] = assay: solubility change mitosis vs G1/S (difference of NP-40 vs SDS log2 ratios) (log2 ratio difference); higher = more soluble in mitosis
HeLa Kyoto [4] = assay: thermal stability score vs G1/S (z-score of summed log2 fold changes over temperatures); higher = more thermally stable than in G1/S
[5] = cell cycle stage: early G1 (4.5 h after nocodazole release)
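Throughout, for melting temperature (median over replicates), in situ: HeLa Kyoto cells synchronized by double thymidine or nocodazole block, proteins quantified by TMT10plex mass spectrometry, three independent biological replicates.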
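Throughout, for solubility change mitosis vs G1/S (difference of NP-40 vs SDS log2 ratios): synchronized HeLa Kyoto cells (double thymidine block for G1/S, nocodazole release for mitosis), protein amounts in NP-40 versus SDS lysates quantified by mass spectrometry, three biological replicates.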
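Throughout, for solubility in G1/S (NP-40 vs SDS abundance): HeLa Kyoto cells arrested at G1/S by double thymidine block, proteins quantified by TMT10plex mass spectrometry in mild NP-40 versus SDS extracts, three biological replicates.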
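Throughout, for thermal stability score vs G1/S (z-score of summed log2 fold changes over temperatures): synchronized HeLa Kyoto cells, proteins quantified by TMT10plex mass spectrometry, three biological replicates, mitosis taken 0.5 h after nocodazole release, G1/S directly after double thymidine block.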

| Sequence | solubility in G1/S (log2) (HeLa Kyoto [1]) | melting temperature (HeLa Kyoto [2]; cell cycle stage: G1/S) | melting temperature (HeLa Kyoto [2]; cell cycle stage: mitosis) | solubility change mitosis (log2) (HeLa Kyoto [3]) | thermal stability score (HeLa Kyoto [4]; [5]) | thermal stability score (HeLa Kyoto [4]; cell cycle stage: mitosis) |
| --- | --- | --- | --- | --- | --- | --- |
| MEMPLPPDDQELRNVIDKLAQFVARNGPEFEKMTMEKQKDNPKFSFLFGGEFYSYYKCKLALEQQQLICKQQTPELEPAATMPPLPQPPLAPAAPIPPAQGAPSMDELIQQSQWNLQQQEQHLLALRQEQVTAAVAHAVEQQMQKLLEETQLDMNEFDNLLQPIIDTCTKDAISAGKNWMFSNAKSPPHCELMAGHLRNRITADGAHFELRLHLIYLINDVLHHCQRKQARELLAALQKVVVPIYCTSFLAVEEDKQQKIARLLQLWEKNGYFDDSIIQQLQSPALGLGQYQATLINEYSSVVQPVQLAFQQQIQTLKTQHEEFVTSLAQQQQQQQQQQQQLQMPQMEAEVKATPPPPAPPPAPAPAPAIPPTTQPDDSKPPIQMPGSSEYEAPGGVQDPAAAGPRGPGPHDQIPPNKPPWFDQPHPVAPWGQQQPPEQPPYPHHQGGPPHCPPWNNSHEGMWGEQRGDPGWNGQRDAPWNNQPDAAWNSQFEGPWNSQHEQPPWGGGQREPPFRMQRPPHFRGPFPPHQQHPQFNQPPHPHNFNRFPPRFMQDDFPPRHPFERPPYPHRFDYPQGDFPAEMGPPHHHPGHRMPHPGINEHPPWAGPQHPDFGPPPHGFNGQPPHMRRQGPPHINHDDPSLVPNVPYFDLPAGLMAPLVKLEDHEYKPLDPKDIRLPPPMPPSERLLAAVEAFYSPPSHDRPRNSEGWEQNGLYEFFRAKMRARRRKGQEKRNSGPSRSRSRSKSRGRSSSRSNSRSSKSSGSYSRSRSRSCSRSYSRSRSRSRSRSRSSRSRSRSQSRSRSKSYSPGRRRRSRSRSPTPPSSAGLGSNSAPPIPDSRLGEENKGHQMLVKMGWSGSGGLGAKEQGIQDPIKGGDVRDKWDQYKGVGVALDDPYENYRRNKSYSFIARMKARDECK [CHERP] | -0.174 | 47.6 °C | 49.2 °C | 0.513 | 1.81 | 4.57 |
| MAPPGSSTVFLLALTIIASTWALTPTHYLTKHDVERLKASLDRPFTNLESAFYSIVGLSSLGAQVPDAKKACTYIRSNLDPSNVDSLFYAAQASQALSGCEISISNETKDLLLAAVSEDSSVTQIYHAVAALSGFGLPLASQEALSALTARLSKEETVLATVQALQTASHLSQQADLRSIVEEIEDLVARLDELGGVYLQFEEGLETTALFVAATYKLMDHVGTEPSIKEDQVIQLMNAIFSKKNFESLSEAFSVASAAAVLSHNRYHVPVVVVPEGSASDTHEQAILRLQVTNVLSQPLTQATVKLEHAKSVASRATVLQKTSFTPVGDVFELNFMNVKFSSGYYDFLVEVEGDNRYIANTVELRVKISTEVGITNVDLSTVDKDQSIAPKTTRVTYPAKAKGTFIADSHQNFALFFQLVDVNTGAELTPHQTFVRLHNQKTGQEVVFVAEPDNKNVYKFELDTSERKIEFDSASGTYTLYLIIGDATLKNPILWNVADVVIKFPEEEAPSTVLSQNLFTPKQEIQHLFREPEKRPPTVVSNTFTALILSPLLLLFALWIRIGANVSNFTFAPSTIIFHLGHAAMLGLMYVYWTQLNMFQTLKYLAILGSVTFLAGNRMLAQQAVKRTAH [RPN2] | 0.0246 | 54 °C | 53.7 °C | -0.162 | 1.07 | 2.44 |
| MAETLSGLGDSGAAGAAALSSASSETGTRRLSDLRVIDLRAELRKRNVDSSGNKSVLMERLKKAIEDEGGNPDEIEITSEGNKKTSKRSSKGRKPEEEGVEDNGLEENSGDGQEDVETSLENLQDIDIMDISVLDEAEIDNGSVADCVEDDDADNLQESLSDSRELVEGEMKELPEQLQEHAIEDKETINNLDTSSSDFTILQEIEEPSLEPENEKILDILGETCKSEPVKEESSELEQPFAQDTSSVGPDRKLAEEEDLFDSAHPEEGDLDLASESTAHAQSSKADSLLAVVKREPAEQPGDGERTDCEPVGLEPAVEQSSAASELAEASSEELAEAPTEAPSPEARDSKEDGRKFDFDACNEVPPAPKESSTSEGADQKMSSPEDDSDTKRLSKEEKGRSSCGRNFWVSGLSSTTRATDLKNLFSKYGKVVGAKVVTNARSPGARCYGFVTMSTAEEATKCINHLHKTELHGKMISVEKAKNEPVGKKTSDKRDSDGKKEKSSNSDRSTNLKRDDKCDRKDDAKKGDDGSGEKSKDQDDQKPGPSERSRATKSGSRGTERTVVMDKSKGVPVISVKTSGSKERASKSQDRKSASREKRSVVSFDKVKEPRKSRDSESHSRVRERSEREQRMQAQWEREERERLEIARERLAFQRQRLERERMERERLERERMHVEHERRREQERIHREREELRRQQELRYEQERRPAVRRPYDLDRRDDAYWPEAKRAALDERYHSDFNRQDRFHDFDHRDRGRYPDHSVDRREGSRSMMGEREGQHYPERHGGPERHGRDSRDGWGGYGSDKRMSEGRGLPPPPRRDWGDHGRREDDRSWQGTADGGMMDRDHKRWQGGERSMSGHSGPGHMMNRGGMSGRGSFAPGGASRGHPIPHGGMQGGFGGQSRGSRPSDARFTRRY [SAFB] | -0.896 | 50 °C | 50.5 °C | 0.541 | 0.453 | 0.986 |
| MTKFGFLRLSYEKQDTLLKLLILSMAAVLSFSTRLFAVLRFESVIHEFDPYFNYRTTRFLAEEGFYKFHNWFDDRAWYPLGRIIGGTIYPGLMITSAAIYHVLHFFHITIDIRNVCVFLAPLFSSFTTIVTYHLTKELKDAGAGLLAAAMIAVVPGYISRSVAGSYDNEGIAIFCMLLTYYMWIKAVKTGSICWAAKCALAYFYMVSSWGGYVFLINLIPLHVLVLMLTGRFSHRIYVAYCTVYCLGTILSMQISFVGFQPVLSSEHMAAFGVFGLCQIHAFVDYLRSKLNPQQFEVLFRSVISLVGFVLLTVGALLMLTGKISPWTGRFYSLLDPSYAKNNIPIIASVSEHQPTTWSSYYFDLQLLVFMFPVGLYYCFSNLSDARIFIIMYGVTSMYFSAVMVRLMLVLAPVMCILSGIGVSQVLSTYMKNLDISRPDKKSKKQQDSTYPIKNEVASGMILVMAFFLITYTFHSTWVTSEAYSSPSIVLSARGGDGSRIIFDDFREAYYWLRHNTPEDAKVMSWWDYGYQITAMANRTILVDNNTWNNTHISRVGQAMASTEEKAYEIMRELDVSYVLVIFGGLTGYSSDDINKFLWMVRIGGSTDTGKHIKENDYYTPTGEFRVDREGSPVLLNCLMYKMCYYRFGQVYTEAKRPPGFDRVRNAEIGNKDFELDVLEEAYTTEHWLVRIYKVKDLDNRGLSRT [STT3A] | -0.102 | 53.7 °C | 54 °C | -0.105 | 1.3 | 3.3 |
